Measurements from publication PMC13069688.

Assays:
[1] = tested on: LacI-Halo WT (Escherichia coli); assay: PBM real-time kinetics (kd/ka); conditions: PBM: imaging buffer (Na+ + K+ about 30 mM; composition and pH not in the material), EMSA: 1 nM DNA, 0-500 nM LacI (monomer), 1x imaging buffer with 20, 100 or …
[2] = tested on: V52A-LacI-Halo V52A (Escherichia coli); assay: PBM real-time kinetics (kd/ka); conditions: PBM: imaging buffer (Na+ + K+ about 30 mM; composition and pH not in the material), EMSA: 1 nM DNA, 0-500 nM LacI (monomer), 1x imaging buffer with 20, 100 or …
[3] = tested on: Q55N-LacI-Halo Q55N (Escherichia coli); assay: PBM real-time kinetics (kd/ka); conditions: PBM: imaging buffer (Na+ + K+ about 30 mM; composition and pH not in the material), EMSA: 1 nM DNA, 0-500 nM LacI (monomer), 1x imaging buffer with 20, 100 or …
[4] = tested on: LacI-Halo WT (Escherichia coli); assay: EMSA; conditions: NaCl titration; Methods list 20, 100, 200 mM; Kd values only in figure; PBM: imaging buffer (Na+ + K+ about 30 mM; composition and pH not in the material); EMSA: 1 nM DNA, 0-500 nM LacI (monomer), 1x imaging buffer with 20, 100 or …
[5] = tested on: Q55N-LacI-Halo Q55N (Escherichia coli); assay: EMSA; conditions: NaCl titration; Methods list 20, 100, 200 mM; Kd values only in figure; PBM: imaging buffer (Na+ + K+ about 30 mM; composition and pH not in the material); EMSA: 1 nM DNA, 0-500 nM LacI (monomer), 1x imaging buffer with 20, 100 or …

Osym operator (PBM)
binding signal (KD/WT-KD(Osym)) ([1]; reference, kd 2.14 ± 0.03 e-4 s-1): 1 | binding signal (KD/WT-KD(Osym)) ([2]; relative ka 1.03, kd 0.89 ± 0.02 e-4 s-1): 0.4 | binding signal (KD/WT-KD(Osym)) ([3]; relative ka 0.89, kd 7.39 ± 0.13 e-4 s-1): 3.6

Osym 60 bp EMSA probe
binding signal (fold KD increase, 50 to 200 mM NaCl) [4]: 10 | binding signal (fold KD increase, 50 to 200 mM NaCl) [5]: 2

O2 operator (PBM)
binding signal (KD/WT-KD(Osym)) ([1]; relative ka 0.42, kd 13.25 ± 0.35 e-4 s-1): 14.1 | binding signal (KD/WT-KD(Osym)) ([2]; relative ka 0.58, kd 4.84 ± 0.10 e-4 s-1): 4.1 | binding signal (KD/WT-KD(Osym)) ([3]; relative ka 0.12, kd 36.53 ± 3.80 e-4 s-1): 140

O1 operator (PBM)
binding signal (KD/WT-KD(Osym)) ([1]; relative ka 0.66, kd 8.84 ± 0.12 e-4 s-1): 6.1 | binding signal (KD/WT-KD(Osym)) ([2]; relative ka 0.72, kd 3.80 ± 0.06 e-4 s-1): 2.6 | binding signal (KD/WT-KD(Osym)) ([3]; relative ka 0.35, kd 22.79 ± 0.89 e-4 s-1): 28.4
